Tests used:
DMPK [1] = test: DMPK knockdown by anti-TfR1 antibody-oligonucleotide conjugates in NHP myotubes; type: cell-based, non-human primate; settings: conjugate with control DMPK-ASO, 72 hours, concentration not stated (0.5, 5, 50 nM tested)
Method: (§1) The purified complexes were then tested for cellular internalization and inhibition of the target gene, DMPK. Non-human primate (NHP) or DM1 (donated by DM1 patients) cells were grown in 96-well plates and differentiated into myotubes for 7 days. Cells were then treated with escalating concentrations (0.5 nM, 5 nM, 50 nM) of each complex for 72 hours. Cells were harvested, RNA was isolated, and reverse transcription was performed to generate cDNA. qPCR was performed using TaqMan kits specific for Ppib (control) and DMPK on the QuantStudio 7. The relative amounts of remaining DMPK transcript in treated vs non-treated cells was were calculated and the results are shown in Table 14 and FIG. 20.
as §1, with “of” for “of the target gene,”, “in” for “in Table 14 and”, “23.” for “20.”

DMPK [2] = test: DMPK knockdown by anti-TfR1 antibody-oligonucleotide conjugates in DM1 patient myotubes; type: cell-based, human; settings: for % knockdown of DMPK in cells from human DM1 patients using Antibody-DMPK ASO conjugate: DM1 patient myotubes, conjugate with control DMPK-ASO, 72 hours, concentration not stated (0.5, 5, 50 nM tested); for activity in delivering a payload (DMPK ASO) and achieving DMPK knockdown compared to the control antibody 15G11: conjugates with control DMPK-ASO, in either cyno cells or human DM1 patient cells
Method: as §1
as §1, with “of” for “of the target gene,”, “in” for “in Table 14 and”, “23.” for “20.”

hTfR1 = hTfR1 (Homo sapiens, UniProt P02786); test: Binding kinetics of anti-TfR1 antibodies on Carterra LSA, hTfR1; settings: Carterra LSA at 25 C
Chain of hTfR1 (P02786 whole entry): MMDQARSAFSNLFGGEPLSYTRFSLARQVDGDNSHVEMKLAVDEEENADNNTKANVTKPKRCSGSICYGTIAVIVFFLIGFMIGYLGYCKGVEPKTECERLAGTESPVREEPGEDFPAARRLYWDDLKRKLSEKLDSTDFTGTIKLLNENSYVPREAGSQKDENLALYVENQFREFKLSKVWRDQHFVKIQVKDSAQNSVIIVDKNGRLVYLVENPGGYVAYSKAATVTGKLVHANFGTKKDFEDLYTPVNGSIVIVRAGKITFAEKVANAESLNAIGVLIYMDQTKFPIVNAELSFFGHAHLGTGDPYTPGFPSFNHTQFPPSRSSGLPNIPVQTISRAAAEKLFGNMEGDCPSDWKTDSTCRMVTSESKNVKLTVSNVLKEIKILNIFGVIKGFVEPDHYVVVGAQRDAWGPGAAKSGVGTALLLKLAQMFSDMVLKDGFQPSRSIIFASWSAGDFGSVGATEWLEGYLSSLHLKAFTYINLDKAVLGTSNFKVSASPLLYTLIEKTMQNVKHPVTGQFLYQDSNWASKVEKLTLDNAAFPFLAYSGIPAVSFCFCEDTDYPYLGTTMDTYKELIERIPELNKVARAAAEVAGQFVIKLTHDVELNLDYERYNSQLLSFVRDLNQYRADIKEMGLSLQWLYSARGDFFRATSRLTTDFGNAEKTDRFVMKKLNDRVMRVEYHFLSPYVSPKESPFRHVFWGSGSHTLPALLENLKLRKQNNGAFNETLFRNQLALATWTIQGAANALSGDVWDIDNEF
Method: Selected anti-TfR1 antibodies were tested for their binding affinity to human TfR1 for measurement of Ka (association rate constant), Kd (dissociation rate constant), and KD (affinity). […] The binding experiment was performed on Carterra LSA at 25 C. An anti-mouse IgG and anti-human IgG antibody “lawn” was prepared on a HC30M chip by amine coupling. 59 IgGs (58 mouse mAbs and 1 human mAb) were captured on the chip. Dilution series of hTfR1, cyTfR1, and hTfR2 were injected to the chip for binding (starting from 1000 nM, 1:3 dilution, 8 concentrations).
Binding data were referenced by subtracting the responses from a buffer analyte injection and globally fitting to a 1:1 Langmuir binding model for estimate of Ka (association rate constant), Kd (dissociation rate constant), and KD (affinity) using the Carterra™ Kinetics software. 5-6 concentrations were used for curve fitting.

B1: 3-A4 (antibody, V domains shown)
VH: EVQLQQSGAELVRPGASVKLSCTASGFNIKDDYMYWVKQRPEQGLEWIGWIDPENGDTEYASKFQDKATVTADTSSNTAYLQLSSLTSEDTAVYYCTLWLRRGLDYWGQGTSVTVSS
VL: DIVMTQAAPSVPVTPGESVSISCRSSKSLLHSNGYTYLFWFLQRPGQSPQLLIYRMSNLASGVPDRFSGSGSGTAFTLRISRVEAEDVGVYYCMQHLEYPFTFGGGTKLEIK
% knockdown of DMPK in NHP cells using Antibody-DMPK ASO conjugate (DMPK [1]): 77%
% knockdown of DMPK in cells from human DM1 patients using Antibody-DMPK ASO conjugate (DMPK [2]): 70%
activity in delivering a payload (DMPK ASO) and achieving DMPK knockdown compared to the control antibody 15G11 (DMPK [2]): superior activity

B2: 5-H12 (antibody, V domains shown)
VH: QIQLQQSGPELVRPGASVKISCKASGYSFTDYCINWVNQRPGQGLEWIGWIYPGSGNTRYSERFKGKATLTVDTSSNTAYMQLSSLTSEDSAVYFCAREDYYPYHGMDYWGQGTSVTVSS
VL: DIVLTQSPTSLAVSLGQRATISCRASESVDGYDNSFMHWYQQKPGQPPKLLIFRASNLESGIPARFSGSGSRTDFTLTINPVEAADVATYYCQQSSEDPWTFGGGTKLEIK
% knockdown of DMPK in NHP cells using Antibody-DMPK ASO conjugate (DMPK [1]): 88%
% knockdown of DMPK in cells from human DM1 patients using Antibody-DMPK ASO conjugate (DMPK [2]): 57%
activity in delivering a payload (DMPK ASO) and achieving DMPK knockdown compared to the control antibody 15G11 (DMPK [2]): superior activity

B3: 8-K6 (antibody, V domains shown)
VH: QVHLQQPGAELVKPGASVKMSCKASGYTFTSYWITWVKQRPGQGLEWIGDIFPNSGRTNYDEKFKSKATLTVDTSSSTAYMQLSSLTSEDSAVYFCAREGNFGSLDYWGQGTTLTVSS
VL: QIVLTQSPAIMSASPGEKVTMTCSANSNLNYMNWYHQKSGTSPKRWIYDTSKLASGVPARFSASGSGTSYSLTISSMEAEDAATYYCQQWSRNPLTFGAGTRLELK
% knockdown of DMPK in NHP cells using Antibody-DMPK ASO conjugate (DMPK [1]): 73%
% knockdown of DMPK in cells from human DM1 patients using Antibody-DMPK ASO conjugate (DMPK [2]): 34%
activity in delivering a payload (DMPK ASO) and achieving DMPK knockdown compared to the control antibody 15G11 (DMPK [2]): superior activity

B4: 3-E5 (antibody, V domains shown)
VH: EIQMKQSGAELVKPGASVKISCKASGYSFTGYNMNWVKQSHGKSLEWIGNINPYYGSTGYNQKFKGKATLTVDKSSSTAYMQLNSLTSEDSAVYYCARGDYGYDEGTWFAYWGQGTLVTVSA
VL: DIVMSQSPSSLAVSAGEKVTMSCKSSQSLLNSRTRKNYLAWYQQKPEQSPKLLIYWASTRESGVPDRFTGSGSGTDFTLTISSVQAEDLAVYYCKQSYNLPFTFGSGTKLEIK
% knockdown of DMPK in NHP cells using Antibody-DMPK ASO conjugate (DMPK [1]): 59%
% knockdown of DMPK in cells from human DM1 patients using Antibody-DMPK ASO conjugate (DMPK [2]): 71%
activity in delivering a payload (DMPK ASO) and achieving DMPK knockdown compared to the control antibody 15G11 (DMPK [2]): superior activity

B5: 9-D4 (antibody, V domains shown)
VH: QVQLQQSGTELARPGASVKLSCKASGFTFTDYGINWVKQRTGQGLEWIGEIYPSSGNSYYNEKFKAKATLTADKSSSTAYMELRSLTSEDSAVYFCARSTYYGSPIDYWGQGTTLTVSS
VL: DIVMTQSHKFMSTPVGDRVSITCKASQDVDTTVAWYQQKPGQSPKLLIYWASTRQIGVPDRFTGSGSGTDFTLTISNVQSEDLADYFCQQYSTYPLTFGGGTKLEIK
% knockdown of DMPK in NHP cells using Antibody-DMPK ASO conjugate (DMPK [1]): 42%
% knockdown of DMPK in cells from human DM1 patients using Antibody-DMPK ASO conjugate (DMPK [2]): 62%
activity in delivering a payload (DMPK ASO) and achieving DMPK knockdown compared to the control antibody 15G11 (DMPK [2]): superior activity

B6: 10-H02 (antibody, V domains shown)
VH: EVQLVESGGDLVKPGGSLKLSCAASGFTFSDYGMHWVRQGPEKGLEWVAYINSGSSTIYYADTVKGRFTISRDNAKNTLFLQMTSLRSEDTAMYYCARPGDYDNYAMDYWGQGTSVTVSS
VL: DIVMTQSHKFLSTSVGDRVSITCKASQDVSVAVAWYQQKPGQSPKLLIYWAYTRHTGVPDRFTGSGSGTEYTLTISSVQAEDLALYYCQQHYNTPPWTFGGGTKLEIK
dissociation rate constant (koff) (hTfR1): 342 µM

B7: 3-E05 (antibody, V domains shown)
VH: EIQMKQSGAELVKPGASVKISCKASGYSFTGYNMNWVKQSHGKSLEWIGNINPYYGSTGYNQKFKGKATLTVDKSSSTAYMQLNSLTSEDSAVYYCARGDYGYDEGTWFAYWGQGTLVTVSA
VL: DIVMSQSPSSLAVSAGEKVTMSCKSSQSLLNSRTRKNYLAWYQQKPEQSPKLLIYWASTRESGVPDRFTGSGSGTDFTLTISSVQAEDLAVYYCKQSYNLPFTFGSGTKLEIK
dissociation rate constant (koff) (hTfR1): 10 µM

B8: 4-C05 (antibody, V domains shown)
VH: QVQLQQSGAELMKPGASVKISCKATGYTFSNYWIEWVKQRPGHGLEWIGEILPGSGSTNYNENFKGKATFTADTSSNTAYMQLSSLTSEDSAVYYCARRGAYGNFHYWGQGTTLTVSS
VL: EIVLTQSPALMAASPGEKVTITCSVSSSISSSNLHWYQQKSETSPKPWIYGTSNLASGVPVRFSGSGSGTSYSLTISSMEAEDAATYYCQQWRSYPYTFGGGTKLEIK
dissociation rate constant (koff) (hTfR1): 48.5 µM

B9: 6-D03 (antibody, V domains shown)
VH: QVQLQQPGAELVKPGASVKMSCKASGYTFTRHWITWVKQRPGQGLEWIGDIYPGSGRTNYNEKFKSTATLTVDTSSSTAYMQLSSLTSEDSAVYYCARDGYLYINYFDYWGQGTTLTVSS
VL: ENVLTQSPAIMSASPGEKVTMTCSASSSVSFMHWFQQKSSTSPKLWIYDTSKLASGVPGRFSGSGSGSSYSLTISSMAAEDVATYYCFQGSGYPYTFGGGTKLEIK
dissociation rate constant (koff) (hTfR1): 107 µM

B10: 8-D15: anti-TfR1 antibody, VH SEQ ID NO: 132, VL SEQ ID NO: 133 (antibody, V domains shown)
VH: QVQLKESGPGLVAPSQSLSITCTVSGFSLTSYAITWVRQSPGKGLEWLGLIWTGGGTNYNSALKSRLSISKDNSKSQVFLKMNSLQTDDTARYYCARIYDGYYRYFDVWGTGTTVTVSS
VL: RIVLTQTPKFLLVSAGDRVTMTCKASQSVSNDVAWYQQKPGQSPKLLIYYASNRYTGVPDRFTGSGYGTDFTFTISTVQAEDLAVYFCQQDYSSPWTFGGGTKLEIK
dissociation rate constant (koff) (hTfR1): 257 µM

B11: 8-K06 (antibody, V domains shown)
VH: QVHLQQPGAELVKPGASVKMSCKASGYTFTSYWITWVKQRPGQGLEWIGDIFPNSGRTNYDEKFKSKATLTVDTSSSTAYMQLSSLTSEDSAVYFCAREGNFGSLDYWGQGTTLTVSS
VL: QIVLTQSPAIMSASPGEKVTMTCSANSNLNYMNWYHQKSGTSPKRWIYDTSKLASGVPARFSASGSGTSYSLTISSMEAEDAATYYCQQWSRNPLTFGAGTRLELK
dissociation rate constant (koff) (hTfR1): 10 µM

B12: 9-C04 (antibody, V domains shown)
VH: EVQLMESGGDLVKPGGSLKLSCAASGFTFSSYGLSWVRQTPDKRLEWVATITSGGSYTYYPDSVKGRFTISRDNARNTLYLQMFSLKSEDTAMYYCALWSLDYWGQGTTLTVSS
VL: QIVLTQSPAIMSASPGEKVTMTCSANSSLSYMHWYQQKPGTSPKRWIYDTSELASGVPARFSGSGSGTSYSLTISSMEAEDAATYYCHQRRSYPWTFGGGTKLEIK
dissociation rate constant (koff) (hTfR1): 575 µM

B13: 9-D04 (antibody, V domains shown)
VH: QVQLQQSGTELARPGASVKLSCKASGFTFTDYGINWVKQRTGQGLEWIGEIYPSSGNSYYNEKFKAKATLTADKSSSTAYMELRSLTSEDSAVYFCARSTYYGSPIDYWGQGTTLTVSS
VL: DIVMTQSHKFMSTPVGDRVSITCKASQDVDTTVAWYQQKPGQSPKLLIYWASTRQIGVPDRFTGSGSGTDFTLTISNVQSEDLADYFCQQYSTYPLTFGGGTKLEIK
dissociation rate constant (koff) (hTfR1): 246 µM

B14: 3-A04 (antibody, V domains shown)
VH: EVQLQQSGAELVRPGASVKLSCTASGFNIKDDYMYWVKQRPEQGLEWIGWIDPENGDTEYASKFQDKATVTADTSSNTAYLQLSSLTSEDTAVYYCTLWLRRGLDYWGQGTSVTVSS
VL: DIVMTQAAPSVPVTPGESVSISCRSSKSLLHSNGYTYLFWFLQRPGQSPQLLIYRMSNLASGVPDRFSGSGSGTAFTLRISRVEAEDVGVYYCMQHLEYPFTFGGGTKLEIK
dissociation rate constant (koff) (hTfR1): 195 µM

B15: 6-D3 (antibody, V domains shown)
VH: QVQLQQPGAELVKPGASVKMSCKASGYTFTRHWITWVKQRPGQGLEWIGDIYPGSGRTNYNEKFKSTATLTVDTSSSTAYMQLSSLTSEDSAVYYCARDGYLYINYFDYWGQGTTLTVSS
VL: ENVLTQSPAIMSASPGEKVTMTCSASSSVSFMHWFQQKSSTSPKLWIYDTSKLASGVPGRFSGSGSGSSYSLTISSMAAEDVATYYCFQGSGYPYTFGGGTKLEIK
% knockdown of DMPK in NHP cells using Antibody-DMPK ASO conjugate (DMPK [1]): −8%
% knockdown of DMPK in cells from human DM1 patients using Antibody-DMPK ASO conjugate (DMPK [2]): −5%

Reference: US20230144436A1, “MUSCLE TARGETING COMPLEXES AND USES THEREOF FOR TREATING MYOTONIC DYSTROPHY” (Dyne Therapeutics, Inc., priority 2020, published 2023)
